# Source: patent US20240392020A1 (JIANGSU HENGRUI PHARMACEUTICALS, published 2024)
# Positions count from the first letter of the chain named.
# T1: B7H3 on the recombinant cell line CT26-B7H3 (UniProt Q5ZPR3 29-534, limits assumed)
# T1 construct: whole, on cells
# T1 sequence (looked up): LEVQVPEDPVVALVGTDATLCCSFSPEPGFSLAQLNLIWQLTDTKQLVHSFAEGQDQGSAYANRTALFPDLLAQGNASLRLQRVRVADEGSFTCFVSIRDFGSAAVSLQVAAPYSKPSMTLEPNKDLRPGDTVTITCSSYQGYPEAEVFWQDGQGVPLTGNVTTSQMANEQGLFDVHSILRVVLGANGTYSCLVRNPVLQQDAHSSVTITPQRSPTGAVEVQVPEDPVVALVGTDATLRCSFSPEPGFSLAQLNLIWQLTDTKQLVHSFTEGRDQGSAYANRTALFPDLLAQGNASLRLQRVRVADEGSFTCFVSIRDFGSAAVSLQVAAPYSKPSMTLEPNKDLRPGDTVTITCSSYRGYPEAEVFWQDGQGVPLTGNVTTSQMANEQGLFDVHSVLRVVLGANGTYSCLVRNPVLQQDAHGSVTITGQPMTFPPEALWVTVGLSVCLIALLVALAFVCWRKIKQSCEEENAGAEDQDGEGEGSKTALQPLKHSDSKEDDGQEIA
# B1: H0 (antibody, human IgG1, kappa)
# heavy: not shown
# light: DIQMTQSPSSVSASVGDRVTITCRASQDIANYLSWYQQKPGKSPKLLIYGTSNLEVGVPSRFSGSRSGTDFTLTISSLQPEDFATYYCLQDKEFPRTFGGGTKVEIKRTVAAPSVFIFPPSDEQLKSGTASVVCLLNNFYPREAKVQWKVDNALQSGNSQESVTEQDSKDSTYSLSSTLTLSKADYEKHKVYACEVTHQGLSSPVTKSFNRGEC
# B2: F8 (antibody)
# heavy: not shown
# light: DTVVTQEPSFSVSPGGTVTLTCGLSSGSVSTSHYPSWYQQTPGQAPRMLIYNTNTRSSGVPDRFSGSILGNKAALTITGAQADDESDYYCAIHVDRDIWVFGGGTKLTVLSGAPRFLTRPKAFVVSVGKDATLSSQIVGNPTPQVSWEKDQQPVAAGARFRLAQDGDLYRLTILDLALGDSGQYVSRARNAIGEAFACVGLQVDAEA
# B3: F5 (antibody)
# heavy: not shown
# light: B2 light with S135C, S186C
# B4: F6 (antibody)
# heavy: not shown
# light: B2 light with A113C, S135C, S186C, C198A
# B5: F3 (antibody)
# heavy: not shown
# light: B2 light with S135C, S186C, C198A
# B6: F9 (antibody)
# heavy: not shown
# light: B2 light with A113C, C198A
# B7: F7 (antibody)
# heavy: not shown
# light: B2 light with R119C, S135C, S186C, C198A
# B8: F10 (antibody)
# heavy: not shown
# light: B2 light with R119C, C198A
# B9: F11 (antibody)
# heavy: not shown
# light: DTVVTQEPSFSVSPGGTVTLTCGLSSGSVSTSHYPSWYQQTPGQAPRMLIYNTNTRSSGVPDRFSGSILGNKAALTITGAQADDESDYYCAIHVDRDIWVFGGGTKLTVLQGSPPEFLRFPRPVRVVSGAEAELKCVVLGEPPPVVVWEKGGQQLAASERLSFPADGAEHGLLLTAALPTDAGCYVCRARNAAGEAYAAAAVTVLEPP
# B10: F12 (antibody)
# heavy: not shown
# light: B9 light with C184V, G194C
# B11: F15 (antibody)
# heavy: not shown
# light: B9 light with C136S, C184V, C187S, G194C
# B12: F14 (antibody)
# heavy: not shown
# light: B9 light with C136S, C187S
# B13: F4 (antibody)
# heavy: not shown
# light: B9 light with E116C, C184V
# B14: F13 (antibody)
# heavy: not shown
# light: B9 light with C184V, A196C
# B15: V4 (antibody)
# heavy: not shown
# light: QIVLTQSPAILSASPGEKVTMTCRASSSVSYMNWYQQKPGSSPKPWIYATSNLASGVPARFSVSVSGTSHSLTISRVEAEDAATYYCQQWSSNPLTFGAGTKLELKQGSPPCFLRFPRPVRVVSGAEAELKCVVLGEPPPVVVWEKGGQQLAASERLSFPADGAEHGLLLTAALPTDAGVYVCRARNAAGEAYAAAAVTVLEPP
# B16: S4 (antibody)
# heavy: not shown
# light: DIQMTQSPASLSASVGDRVTITCRASENIFSYLAWYQQKPGKSPKLLVYNTRTLAEGVPSRFSGSGSGTDFSLTISSLQPEDFATYYCQHHYGTPFTFGSGTKLEIKGIPPKIEALPSDISIDEGKVLTVACAFTGEPTPEVTWSCGGRKIHSQEQGRFHIENTDDLTTLIIMDVQKQDGGLYTLSLGNEFGSDSATVNIHIRSI
# B17: V1 (antibody)
# heavy: not shown
# light: QIVLTQSPAILSASPGEKVTMTCRASSSVSYMNWYQQKPGSSPKPWIYATSNLASGVPARFSVSVSGTSHSLTISRVEAEDAATYYCQQWSSNPLTFGAGTKLELKGILQPDPPANITVTAVARNPRWLSVTWQDPHSWNSSFYRLRFELRYRAERSKTFTTWMVKDLQHHCVIHDAWSGLRHVVQLRAQEEFGQGEWSEWSPEAMGTPW
# B18: V3 (antibody)
# heavy: not shown
# light: QIVLTQSPAILSASPGEKVTMTCRASSSVSYMNWYQQKPGSSPKPWIYATSNLASGVPARFSVSVSGTSHSLTISRVEAEDAATYYCQQWSSNPLTFGAGTKLELKSGAPRFLTRPKAFVVSVGKDATLSCQIVGNPTPQVSWEKDQQPVAAGARFRLAQDGDLYRLTILDLALGDSGQYVCRARNAIGEAFAAVGLQVDAEA
# B19: S3 (antibody)
# heavy: not shown
# light: DIQMTQSPASLSASVGDRVTITCRASENIFSYLAWYQQKPGKSPKLLVYNTRTLAEGVPSRFSGSGSGTDFSLTISSLQPEDFATYYCQHHYGTPFTFGSGTKLEIKQGSPPCFLRFPRPVRVVSGAEAELKCVVLGEPPPVVVWEKGGQQLAASERLSFPADGAEHGLLLTAALPTDAGVYVCRARNAAGEAYAAAAVTVLEPP
# B20: V0 (antibody, human IgG1, lambda)
# heavy: not shown
# light: QIVLTQSPAILSASPGEKVTMTCRASSSVSYMNWYQQKPGSSPKPWIYATSNLASGVPARFSVSVSGTSHSLTISRVEAEDAATYYCQQWSSNPLTFGAGTKLELKGQPKAAPSVTLFPPSSEELQANKATLVCLISDFYPGAVTVAWKADSSPVKAGVETTTPSKQSNNKYAASSYLSLTPEQWKSHRSYSCQVTHEGSTVEKTVAPTECS
# B21: F2 (antibody)
# heavy: not shown
# light: DTVVTQEPSFSVSPGGTVTLTCGLSSGSVSTSHYPSWYQQTPGQAPRMLIYNTNTRSSGVPDRFSGSILGNKAALTITGAQADDESDYYCAIHVDRDIWVFGGGTKLTVLFDPVYKVKPNPPHNLSVINSEELSSILKLTWTNPSIKSVIILKYNIQYRTKDASTWSQIPPEDTASTRSSFTVQDLKPFTEYVFRIRCMKEDGKGYWSDWSEEASGIT
# B22: F1 (antibody)
# heavy: not shown
# light: DTVVTQEPSFSVSPGGTVTLTCGLSSGSVSTSHYPSWYQQTPGQAPRMLIYNTNTRSSGVPDRFSGSILGNKAALTITGAQADDESDYYCAIHVDRDIWVFGGGTKLTVLGILQPDPPANITVTAVARNPRWLSVTWQDPHSWNSSFYRLRFELRYRAERSKTFTTWMVKDLQHHCVIHDAWSGLRHVVQLRAQEEFGQGEWSEWSPEAMGTPW
# Target: T2, hIL-5 (human, UniProt P05113 20-134)
# T2 construct: bought
# Test: ELISA
# Protocol: For an antibody targeting a soluble protein, the binding activity of the antibody against the soluble protein was detected by ELISA. […] After the blocking was completed, the blocking solution was discarded; and the plate was washed 3 times with a PBST buffer (pH 7.4, PBS containing 0.1% tween-20). 100 μL of the antibody solution diluted in a gradient was added to each well, and the mixture was incubated at 37° C. for 1 h. After the incubation was completed, the plate was washed 3 times with PBST. […] The plate was washed 3 times with PBST. […] The reaction was stopped by adding 50 μL of 1 M H₂SO₄ to each well. The absorbance values at 450 nm were read on a microplate reader, the binding curves of the antibodies to an antigen were fitted with software, and the EC₅₀ values were calculated.
row,EC50 [nM],Binder
1,1.74,B1

# Target: T1, B7H3 on the recombinant cell line …
# Test: FACS, CT26-B7H3 cells
row,EC50 [nM],Binder
1,3.14,B2
2,1.21,B3
3,2.71,B4
4,2.64,B5
5,3.52,B6
6,3.38,B7
7,3.94,B8
8,6.15,B9
9,8.19,B10
10,4.44,B11
11,5.15,B12
12,3.01,B13
13,6.08,B14

# Target: T1, B7H3 on the recombinant cell line …
# Test: FACS, CT26-B7H3 cells
# Remark: another data set of the same source
row,EC50 [nM],Binder
1,2.83,B5
2,2.9,B15
3,1.96,B16
4,38.4,B17
5,3.6,B18
6,2.17,B13
7,3.5,B19
8,1.8,B20
9,59.3,B21
10,71.6,B22
